Experimental data taken from patent US20200353050A1 (Eli Lilly, published 2020).

Assays:
PD-1 = molecular target: T1, PD-1; assay: bio-layer interferometry (BLI)
T1 construct: the paragraph before it speaks of human and cynomolgus PD-1; also called programmed cell death protein 1; CD279

cynomologous monkey PD-1 = molecular target: T2, cynomologous monkey PD-1 (cynomologous monkey, UniProt B0LAJ3 25-170); assay: method not stated in that sentence (BLI in the next one), 25° C
T2 construct: also called cynomolgus PD-1
T2 sequence (B0LAJ3 entry or part of it limits assumed): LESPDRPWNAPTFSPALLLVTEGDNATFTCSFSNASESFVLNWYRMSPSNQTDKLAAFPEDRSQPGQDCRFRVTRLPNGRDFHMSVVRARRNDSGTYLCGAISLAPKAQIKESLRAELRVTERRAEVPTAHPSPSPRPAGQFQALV

human PD-1 = molecular target: T3, human PD-1 (human, UniProt Q15116 25-167, limits assumed); assay: method not stated in that sentence (BLI in the next one), 25° C; 25° C; human PD-1
T3 construct: also called programmed cell death protein 1; CD279
T3 sequence (Q15116 25-167 limits assumed): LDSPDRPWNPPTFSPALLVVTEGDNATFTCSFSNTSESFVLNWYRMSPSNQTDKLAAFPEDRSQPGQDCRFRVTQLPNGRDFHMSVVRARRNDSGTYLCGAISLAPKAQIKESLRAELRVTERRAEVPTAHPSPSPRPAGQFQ

T1 sequence (Q15116 25-170): as the sequence (B0LAJ3 entry or part of it limits assumed) above, with E2D, A10P, L19V, A35T, R75Q, A144T counted along it

B1: AM0001 (antibody, human IgG4 S228P, lambda, V domains shown)
VH: EVQLLESGGGLVQPGGSLRLSCPASGFTFSSYAMSWVRQAPGKGLGWVSDISGGGGTTYYADSVKGRFTISRDNSKNTLYLQMNSLRGEDTAVYYCAKSGTVVTDFDYWGQGTLVTVSS
VL: SYVLTQPPSVSVAPGQTARVTCGGNSIGSYSVHWYQQKPGQAPVLVVYDDSDRPSGIPERFSGSNSGNTAALTISRVEAGDEADYYCQVWDTSSYWVFGGGTKLTVLG
notes: Monoclonal antibody with a lambda 2 light chain and a hinge-stabilized IgG4 (S228P) heavy chain; also called PD1-antagonist antibody AM0001; VH-09/VL-09
With B1 the Kd (PD-1) was < 0.001 nM, the Kd (cynomologous monkey PD-1) was ≤ 0.01 nM and the Kd (human PD-1) was ≤ 0.01 nM.
